Assay [1] addresses T1, SARS-CoV-2 南非beta突变型S1抗原 (SARS-CoV-2 beta variant, UniProt P0DTC2 16-685).
T1 construct: domain: S1; also called beta突变体抗原; beta变异突变株
The assay can be described thus: SPR, Biacore T200, antigen coupled to CM5 chip, nanobody as analyte. For orientation: SPR reads the build-up and loss of mass on a sensor chip optically.

In assay [2] the target is T2, SARS-CoV-2 印度delta突变型S1抗原 (SARS-CoV-2 delta variant, UniProt P0DTC2 16-685).
T2 construct: domain: S1; also called delta突变体抗原; delta变异突变株
The description is as above.

B1: R-30 (VHH)
VHH: QVQLQESGGGLVQSGGSLRLSCTASGGIIRLNSMGWYRQAPGKQREPVATIVSDVGTNYADSVKGRFTISRDNAKNTIYLQMNSLKFEDTAVYYCVADRAFVLRGEYEYWGQGTQVTVSS
notes: also called 第一株RBD纳米抗体R-30
A word on the Kd: it is the concentration at which binding is half-saturated. High values mean a looser complex, low ones a tighter complex. For B1, the Kd in assay [1] and in assay [2] was ~0.1 nM in each case.

B2: S1-28 (VHH)
VHH: QVQLQESGGGLVQPGGSLRLSCTASGGIIRLNSMGWYRQAPGKQREPVATIVSDVGTNYADSVKGRFTISRDNAKNTIYLQMNSPKFEDTAVYYCVADRAFVLRGEYEYWGQGTQVTVSS
notes: also called 第二株RBD纳米抗体S1-28
In the case of B2, the dissociation constant Kd in assay [1] and in assay [2] was ~0.1 nM each time.

B3: S1-51 (VHH)
VHH: QVQLQESGGGLVQSGGSLRLSCAASGGVSRLNSMGWYRQAPGKQRELVATIISDVGTNYADSVKGRFTISRDNAANTVYLQMNSLKFEDTAVYYCVADRAFVLRGEYEYWGQGTQVTVSS
notes: also called 第三株RBD纳米抗体S1-51
Take B3: the dissociation constant (Kd) in assay [1] and in assay [2] was ~0.1 nM throughout.

B4: S1-24 (VHH)
VHH: QVQLQESGGGLVQSGGSLRLSCAASGGVSRLNSMGWYRQAQGKQRELVATIVNDVGTNYADSVKGRFTISRDNAANTVYLLMNSLKFEDTAVYNCVADRAFVLRGEYEYWGQGTQVTVSS
notes: also called 第四株RBD纳米抗体S1-24
Regarding B4, the Kd in assay [1] and in assay [2] was ~0.1 nM each time.

Values taken from CN117069831A (SHENZHEN BGI LIFE SCIENCE RES INSTITUTE, dated 2023).
